Reference: publication PMC4889030 (Molecular cell, 2016)
Like-named read-outs stand apart in the source and are kept apart here. Where no end group is shown, it is not given here.

Legend:
Experiment in all cases: pull-down
[1] = target: T1, full length ^FlagCRBN expressed in CRBN-KO 293FT cells (human, UniProt Q96SW2 1-442)
[2] = target: T1, full length ^FlagCRBN expressed in …; remark: listed apart in the source
[3] = target: ^FlagCRBN H357Y (human, UniProt Q96SW2 1-442, H357Y)
^FlagCRBN H357Y, sequence (Q96SW2 whole entry H357Y): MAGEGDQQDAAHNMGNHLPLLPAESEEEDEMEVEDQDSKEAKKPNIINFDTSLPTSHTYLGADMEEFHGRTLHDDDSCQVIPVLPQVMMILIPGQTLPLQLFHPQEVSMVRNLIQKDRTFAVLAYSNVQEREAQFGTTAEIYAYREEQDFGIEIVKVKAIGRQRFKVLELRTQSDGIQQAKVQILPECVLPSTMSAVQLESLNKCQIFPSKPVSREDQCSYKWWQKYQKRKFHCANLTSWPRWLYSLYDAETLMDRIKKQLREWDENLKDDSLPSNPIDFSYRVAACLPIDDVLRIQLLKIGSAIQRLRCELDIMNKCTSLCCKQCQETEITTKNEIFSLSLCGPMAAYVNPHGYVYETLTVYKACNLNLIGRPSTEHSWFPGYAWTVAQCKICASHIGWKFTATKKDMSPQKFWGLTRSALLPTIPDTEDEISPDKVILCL

T1 sequence (Q96SW2 whole entry): as the sequence (Q96SW2 whole entry H357Y) above, with Y357H counted along it

| binding result [1] | binding result [2] | binding result [3] | Binder |
| --- | --- | --- | --- |
| binds | – | – | ASSHLNK(Ac)GIK(Ac)QVYMSLPQ (peptide, UniProt P15104 5-22, looked up, also: biotinylated, place not given here) [biotinylated synthetic GS peptide (amino acids 5-22 of GS), di-acetylated on K11 and K14] |
| – | binds | – | ASSHLNKGIK(Ac)QVYMSLPQ (peptide, UniProt P15104 5-22, looked up, also: biotinylated, place not given here) [biotinylated synthetic GS peptide (amino acids 5-22 of GS), mono-acetylated on K14] |
| – | binds | binds | ASSHLNK(Ac)GIKQVYMSLPQ (peptide, UniProt P15104 5-22, looked up, also: biotinylated, place not given here) [biotinylated synthetic GS peptide (amino acids 5-22 of GS), mono-acetylated on K11] |
